What was measured:
[1] = target: recombinant CD81 large extracellular loop (CD81-LEL); assay: peptide or protein array; direct analysis on a 3-D biochip: CD81-LEL covalently immobilised in spots (300 pg/spot) on macroporous P(GMA-co-DEGDMA), blocked with BSA; E2-GFP or VMPs in solution, 0.01 M PBS pH 7.4 (VMPs also in spiked human blood plasma), 2 h, 37 °C; GFP fluorescence read; apparent dissociation constants from adsorption isotherms linearised in double reciprocal coordinates
[2] = target: recombinant CD81 large extracellular loop (CD81-LEL); assay: peptide or protein array; sandwich analysis on a 3-D biochip: CD81-LEL immobilised (300 pg/spot); E2-GFP or VMPs at 1500 ng/mL, 2 h, 37 °C; then Cy3-labelled polyclonal anti-E2 antibodies (1000 ng/mL, 3 h) for detection; 0.01 M PBS pH 7.4 or spiked human blood plasma

chimeric protein E2-superfolder GFP (HCV E2 core, 412-645 aa) (domain or fragment)
Kd [1]: 11.6 nM

hepatitis C virus-mimetic particles (HC VMPs): PLA-b-PEG nanoparticles bearing E2-GFP on their surface
decrease in relative signal intensity against free E2 [2]: 45 to 48% | Kd [1]: 26.3 nM | decrease in relative signal intensity against free E2 [1]: 40%

Reference: publication PMC7249126
